Experimental findings from US7700571 (Genentech, dated 2010) are described below.

Experiment [1] concerns the target Flt-1 on primary mouse liver sinusoidal endothelial cells (LSEC) (mouse) (UniProt P35969). Put plainly: cell-based or functional assay.
The target of experiment [2] is T1, KDR (UniProt P35968 20-764, limits assumed).
T1 construct: also called VEGFR-2; KDR receptor
Description: soluble radio-immuno receptor-binding assay (RIA); target KDR.

A further experiment deals with T2, Flt-1 (UniProt P17948 27-758, limits assumed).
T2 construct: also called VEGFR-1; Flt-1 receptor
T2 sequence (P17948 27-758 limits assumed): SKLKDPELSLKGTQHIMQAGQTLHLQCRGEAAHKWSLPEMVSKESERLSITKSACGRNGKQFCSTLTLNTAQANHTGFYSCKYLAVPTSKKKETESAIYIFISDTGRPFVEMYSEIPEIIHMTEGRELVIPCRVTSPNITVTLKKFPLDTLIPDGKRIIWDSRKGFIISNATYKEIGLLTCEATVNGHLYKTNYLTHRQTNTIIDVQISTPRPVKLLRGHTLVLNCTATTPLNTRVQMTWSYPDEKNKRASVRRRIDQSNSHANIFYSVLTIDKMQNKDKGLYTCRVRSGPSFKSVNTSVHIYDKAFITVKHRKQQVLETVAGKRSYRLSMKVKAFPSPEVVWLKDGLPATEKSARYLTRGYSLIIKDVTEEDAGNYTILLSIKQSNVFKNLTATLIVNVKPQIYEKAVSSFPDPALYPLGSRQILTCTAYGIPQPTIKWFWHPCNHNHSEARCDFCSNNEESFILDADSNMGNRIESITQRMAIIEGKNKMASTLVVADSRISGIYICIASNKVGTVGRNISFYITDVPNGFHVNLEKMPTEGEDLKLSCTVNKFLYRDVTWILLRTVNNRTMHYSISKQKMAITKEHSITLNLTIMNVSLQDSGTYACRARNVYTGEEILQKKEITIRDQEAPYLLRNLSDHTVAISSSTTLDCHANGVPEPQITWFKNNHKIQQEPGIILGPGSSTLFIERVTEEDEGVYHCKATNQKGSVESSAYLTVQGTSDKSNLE
Put plainly: soluble radio-immuno receptor-binding assay (RIA); target Flt-1.

The target in experiment [3] is T1, KDR. Description: soluble radio-immuno receptor-binding assay (RIA).
For experiment [4], the target named is T3, Flt-1 on primary mouse liver sinusoidal endothelial cells (LSEC) (mouse, UniProt P35969 23-1333).
T3 sequence (looked up): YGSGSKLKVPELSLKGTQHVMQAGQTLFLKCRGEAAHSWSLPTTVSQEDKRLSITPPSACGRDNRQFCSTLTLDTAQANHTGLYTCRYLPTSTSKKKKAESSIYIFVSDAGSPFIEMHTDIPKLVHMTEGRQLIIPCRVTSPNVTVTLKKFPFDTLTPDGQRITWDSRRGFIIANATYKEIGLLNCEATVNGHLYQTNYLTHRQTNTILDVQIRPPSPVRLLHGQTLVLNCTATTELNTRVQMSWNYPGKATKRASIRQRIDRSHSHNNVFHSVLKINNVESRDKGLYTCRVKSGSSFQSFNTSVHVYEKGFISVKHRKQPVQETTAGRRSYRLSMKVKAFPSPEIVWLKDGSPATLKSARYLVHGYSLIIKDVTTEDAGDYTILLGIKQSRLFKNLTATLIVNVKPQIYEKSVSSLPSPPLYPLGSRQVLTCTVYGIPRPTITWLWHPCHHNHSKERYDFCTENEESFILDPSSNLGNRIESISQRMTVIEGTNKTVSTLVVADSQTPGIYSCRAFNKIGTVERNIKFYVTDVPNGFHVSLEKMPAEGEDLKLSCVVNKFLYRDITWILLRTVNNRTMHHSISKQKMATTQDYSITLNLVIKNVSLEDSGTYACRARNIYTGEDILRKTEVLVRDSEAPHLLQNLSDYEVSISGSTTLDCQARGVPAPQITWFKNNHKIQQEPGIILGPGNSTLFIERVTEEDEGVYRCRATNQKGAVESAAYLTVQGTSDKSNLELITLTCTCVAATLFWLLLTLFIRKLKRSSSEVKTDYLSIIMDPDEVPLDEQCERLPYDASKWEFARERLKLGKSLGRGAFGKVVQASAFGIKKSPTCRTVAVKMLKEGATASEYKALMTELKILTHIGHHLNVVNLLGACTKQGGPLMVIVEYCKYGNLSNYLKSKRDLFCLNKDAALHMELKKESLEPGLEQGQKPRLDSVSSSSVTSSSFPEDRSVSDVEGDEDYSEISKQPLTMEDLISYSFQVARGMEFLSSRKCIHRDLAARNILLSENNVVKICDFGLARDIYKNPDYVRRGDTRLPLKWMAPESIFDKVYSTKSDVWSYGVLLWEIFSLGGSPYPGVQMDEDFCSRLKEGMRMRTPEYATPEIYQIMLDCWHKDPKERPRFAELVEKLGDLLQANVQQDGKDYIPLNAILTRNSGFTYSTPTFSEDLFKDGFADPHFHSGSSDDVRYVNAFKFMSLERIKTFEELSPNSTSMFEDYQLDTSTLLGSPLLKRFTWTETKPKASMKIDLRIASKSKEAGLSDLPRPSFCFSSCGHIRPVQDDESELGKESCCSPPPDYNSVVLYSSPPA
Description: cell-based or functional assay.

T1 sequence (P35968 20-764 limits assumed): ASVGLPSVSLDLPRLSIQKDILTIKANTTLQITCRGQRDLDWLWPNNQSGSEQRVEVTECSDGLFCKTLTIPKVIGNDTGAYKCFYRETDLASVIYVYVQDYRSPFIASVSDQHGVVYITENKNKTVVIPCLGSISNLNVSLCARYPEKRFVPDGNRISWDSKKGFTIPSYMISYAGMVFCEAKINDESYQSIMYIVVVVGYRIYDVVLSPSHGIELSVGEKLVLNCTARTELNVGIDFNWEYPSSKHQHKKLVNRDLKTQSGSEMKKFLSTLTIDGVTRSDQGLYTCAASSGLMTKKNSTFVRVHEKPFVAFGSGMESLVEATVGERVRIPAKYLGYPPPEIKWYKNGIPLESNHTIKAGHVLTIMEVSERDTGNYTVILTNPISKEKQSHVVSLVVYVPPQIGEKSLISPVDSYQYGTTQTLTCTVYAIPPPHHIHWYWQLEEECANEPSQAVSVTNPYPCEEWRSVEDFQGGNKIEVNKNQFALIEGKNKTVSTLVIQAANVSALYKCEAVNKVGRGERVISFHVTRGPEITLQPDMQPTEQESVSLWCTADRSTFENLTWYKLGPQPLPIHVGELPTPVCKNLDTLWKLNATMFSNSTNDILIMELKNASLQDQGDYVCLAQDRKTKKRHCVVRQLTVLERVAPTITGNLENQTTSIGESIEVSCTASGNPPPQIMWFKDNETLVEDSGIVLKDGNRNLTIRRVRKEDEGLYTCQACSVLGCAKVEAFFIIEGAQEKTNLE

Turning to “recombinant human VEGF (from UniProt P15692 181-395) (ligand)”, in experiment [1], the induction of HGF mRNA in LSEC (Taqman RT-PCR, 10 ng/ml, 24 h) was determined as 5.5 fold and the induction of IL-6 mRNA in LSEC (Taqman RT-PCR, 10 ng/ml, 24 h) amounted to 3.3 fold.

B1: native VEGF(8-109) (ligand)
chain: GQNHHEVVKFMDVYQRSYCHPIETLVDIFQEYPDEIEYIFKPSCVPLMRCGGCCNDEGLECVPTEESNITMQIMRIKPHQGQHIGEMSFLQHNKCECRPKKD
notes: If that entry includes the signal peptide, 8-109 must be shifted; also called the native protein
Regarding B1, the dissociation constant (Kd) with KDR [2] was 500 pM; with Flt-1 it was 400 pM.

B2: Flt-sel variant I43A/I46A/Q79A/I83A (ligand)
chain: APMAEGGGQNHHEVVKFMDVYQRSYCHPIETLVDIFQEYPDEAEYAFKPSCVPLMRCGGCCNDEGLECVPTEESNITMAIMRAKPHQGQHIGEMSFLQHNKCECRPKKDRARQENPCGPCSERRKHLFVQDPQTCKCSCKNTDSRCKARQLELNERTCRCDKPRR
notes: VEGF variant with four alanine substitutions, numbered on native VEGF; also called Fit-sel; FIt-sel
As to B2, the “fold reduction of KDR-binding affinity against native VEGF(8-109)” value in the experiment with KDR [3] is no less than 470 fold. Besides, in experiment [4], the “induction of HGF mRNA in LSEC (Taqman RT-PCR, 10 ng/ml, 24 h)” value is 5.5 fold and the “induction of IL-6 mRNA in LSEC (Taqman RT-PCR, 10 ng/ml, 24 h)” value is 3.3 fold.

What is called Kd is the free concentration of one partner at which half of the binding sites on the other are occupied at equilibrium, for simple one-to-one binding. Low readings indicate a tighter complex, high ones a looser complex.
